Assay results reported in patent US9713645B2, “Short interference RNA gene delivery system for systemic circulation” (INDUSTRY-UNIVERSITY COOPERATION FOUNDATION HANYANG …, priority 2012, dated 2017).

How the values were obtained:
cells = assay: Intracellular transfection efficiency of D-R9 structures complexed with luciferase DNA; type: cell-based; conditions: complexes with luciferase DNA, charge ratio 1:5; FIG. 4
Procedure: In the PEG-R9 structure, PEG was attached to C-(D-R9)-C. To confirm whether the C-(D-R9)-C structure was optimum, the C-(D-R9)-C structure was compared with G-(D-R9)-G, G-(D-R9)-C, and C-(D-R9)-G structures. Each of the G-(D-R9)-G, G-(D-R9)-C, C-(D-R9)-G, and C-(D-R9)-C delivery systems formed complexes with luciferase DNA in a charge ratio of 1:5. The intracellular transfection efficiencies of the complexes into cells were evaluated.

SCC7 cells [1] = assay: MTT assay for cell viability; type: cell-based; conditions: FIG. 6
Procedure: Cell viability was measured by MTT [3-(4,5-dimethylthiazol-2-yl)-2,5-diphenyltetrazolium bromide] assay.
SCC7 cells were incubated in a 24-well plate and treated with R9, PEG-R9 complexes, and PEI complexes in the specified charge ratios. 48 h after transfection, 50 μl of MTT reagent and 500 μl of a medium were added to each well, followed by culture at 37° C. for 3 h. After removal of the culture media, 500 μl of dimethyl sulfoxide (DMSO) was added to each well, followed by culture at room temperature for 20 min. The absorbance was measured at 570 nm.

[2] = Sizes and zeta potentials of siVEGF conjugates with different delivery systems; type: physicochemical; conditions: FIG. 7
Procedure: siVEGF was conjugated with different kinds of delivery systems. The sizes and zeta potentials of the conjugates were analyzed to find which delivery system would be optimal for siRNA delivery. A group of cys-R9-cys, PEG-R9, and PEG-cys-R9-cys delivery systems and a group of PEG-cys-R9-cys, PEG-TAT, and PEG-cys-TAT-cys delivery systems were used, and their mean diameters were measured and compared.

SCC7 cells [3] = assay: Luciferase assay for gene expression efficiency; type: cell-based; conditions: plasmid luciferase 4 μg, charge ratio 12, 48 h, FIG. 6
Procedure: In this example, luciferase gene expression was measured using a luciferase assay kit and cell viability was analyzed by MTT assay.
A luciferase assay kit was purchased from Promega (USA). A DC protein assay kit and a bovine serum albumin standard were purchased from Bio-Rad Laboratories (USA). SCC7 cells were seeded onto a 24-well plate at 2×10^4 cells/well. 24 h after seeding, the cells were transfected with plasmid luciferase (4 μg)/PEG-R9 complexes (charge ratio 12).
PEI complexes in a charge ratio of 8 were used as control. After 48-h incubation, the cells was washed with PBS and treated with 150 μl of a 1× cell lysis buffer reagent for 20 min. The cell lysate was obtained by scrapping, transferred to a 1.5 ml microtube, and centrifuged at 13,000 rpm for 3 min. The luminescence values of the cell lysate were measured using a 96-well plate photometer (Berthold Detection Systems, Germany) with a 20 s integration time and were expressed as relative luminescence units (RLU) per mg of cell protein.
Proteins were determined with the DC protein assay kit using the bovine serum albumin standard. Based on the above procedure, PEG500 and PEG1000 were compared to find which one would be most optimal.

Substance | intracellular transfection efficiency (cells) | cytotoxicity (in words) (SCC7 cells [1]; 48 h after transfection) | cell viability (SCC7 cells [1]) | particle size compared with the PEG-unbound delivery system [2] | intracellular gene delivery efficiency by luciferase assay (SCC7 cells [3])
Cys-(D-R9)-Cys [C-(D-R9)-C] | high transfection efficiencies | – | – | – | –
PEG-Cys-(D-R9)-Cys [PEG-R9] | – | much lower than the other gene delivery systems | at least 95% | smaller | efficiently deliver the gene into the cells
